The record followed here is article PMC2119884.

The target in test [1] is L266D mutant yeast actin (S. cerevisiae) (UniProt P60010). The experiment in a line: light scattering.
The target is the same in test [2]. The experiment in a line: sedimentation of F-actin.
The target is the same in test [3]. The experiment in a line: light scattering. This is another data set of the same source.
For test [4] the target is unchanged. The experiment in a line: light scattering. The source holds these as a separate data set.
For test [5] the target is unchanged. The experiment in a line: sedimentation of F-actin. This is another data set of the same source.
For test [6] the target is unchanged. As to the kind of experiment: light scattering. This is another data set of the same source.
Test [7] has the same target. The experiment in a line: sedimentation of F-actin. This is another data set of the same source.

“And” between values parts separate entries of the source, which are not always exact repeats. Equal entries are not always repeated. Where two headings read alike, the source gives them in different places.

For “L266D mutant yeast actin (from UniProt P60010 1-375) (natural protein)”, the critical concentration (Cc) for polymerization was found to be 1.2 µM in test [1], 6.5 µM in test [3] and 11 µM in test [4]. Moreover, the elongation rate, times slower than wild-type actin is 2 times and 3 times in test [1]; 2 times and 3 times in test [6]. The actin remaining in the supernate (starting concentration 70 µM) in test [2] came to 4.6 µM; in test [5], 11.6 µM; in test [7] it was 46.5 µM.
